Results published in the supplement of paper PMC9732359.
± gives the uncertainty stated by the source.

Experiment: protein stability index of a GFP-peptide fusion (yeast GPS) (PSI 1-4); higher = more stable; sorted into four equal gates, so the index is relative within each strain
Outline: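 Each library plasmid carries Cherry plus GFP with a tiled 17-residue yeast protein peptide fused downstream, and the pooled library was carried in yeast. Mid-log cultures in leucine-free medium were sorted into four equal gates by GFP/Cherry ratio. Reads from Illumina sequencing of PCR-amplified plasmids from each gate were assigned to strains by barcodes. Per peptide, the protein stability index was computed as the summed products of gate read frequency and gate number.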

Sequence | protein stability index (doa10∆) | protein stability index (pdr5∆) | protein stability index (san1∆) | protein stability index (ubr1∆)
YLAKLSKQLSLEEKKKR [IRR1] | 2.65 ± 0.098 | 2.75 ± 0.085 | 2.44 ± 0.11 | 2.86 ± 0.085
RGKNEIIQNAQRDAVTL [RPO21] | 3.3 ± 0.067 | 2.99 ± 0.078 | 3.23 ± 0.064 | 3.04 ± 0.066
IFINYKQTADWLAEKFQ [PRP28] | 1.7 ± 0.049 | 1.93 ± 0.06 | 2.37 ± 0.072 | 2.36 ± 0.06
KVVTKKYCEIMGDNSQL [SNF2] | 3.19 ± 0.17 | 3.25 ± 0.14 | 2.88 ± 0.15 | 2.98 ± 0.1
LILGLNTSIAQFDIQSP [YML103C/NUP188] | 1.94 ± 0.044 | 1.81 ± 0.045 | 2.29 ± 0.071 | 2.6 ± 0.044
DDKVSVVEKEKIESLAG [UBP6] | 3.31 ± 0.2 | 2.84 ± 0.24 | 2.89 ± 0.17 | 3.37 ± 0.14
KLREKVNDVELAFKKNE [MTW1] | 3.1 ± 0.13 | 3.02 ± 0.13 | 3 ± 0.15 | 3.06 ± 0.21
MVHLYSIVEECDARFDE [RPC17] | 3.04 ± 0.12 | 2.94 ± 0.078 | 3.01 ± 0.099 | 2.74 ± 0.18
AFSYEQAQLRIDDKTQN [DIS3] | 3.32 ± 0.21 | 2.81 ± 0.14 | 2.87 ± 0.12 | 2.25 ± 0.24
IGNLITRQFEGRSNEIV [PRP8] | 3.05 ± 0.075 | 3.29 ± 0.087 | 3 ± 0.058 | 2.7 ± 0.074
INQYQLLYNLKNDILTN [SWI1] | 1.63 ± 0.038 | 1.33 ± 0.049 | 1.28 ± 0.1 | 1.18 ± 0.036
KSKLDQDSTSENVKIIN [RPN2] | 3.39 ± 0.07 | 3.3 ± 0.065 | 2.97 ± 0.074 | 3.18 ± 0.08
DRKSIMPLKILLATKQH [CSN12] | 1.9 ± 0.15 | 1.19 ± 0.055 | 1.53 ± 0.11 | 1.42 ± 0.058
DNTSHDEQDDDNVNSTT [BRN1] | 3 ± 0.073 | 3.19 ± 0.088 | 3.17 ± 0.1 | 3.23 ± 0.062
LGSLTVEDYLSSVTSDS [RPC82] | 2.95 ± 0.11 | 3.02 ± 0.076 | 2.19 ± 0.22 | 3.2 ± 0.074
LLSFVLGVVFGRGGSGW [YML031W/NDC1] | 2.33 ± 0.068 | 2.28 ± 0.067 | 2.31 ± 0.077 | 2.37 ± 0.096
DLTGSEPIKEIIDNWEK [FAS1] | – | 2.79 ± 0.15 | – | 3.07 ± 0.16
KINSWDQVLVKGGEQIS [YJL041W/NSP1] | 2.04 ± 0.087 | 2.56 ± 0.085 | 3.29 ± 0.087 | 2.21 ± 0.073
NIKSNDFSIRKTCAKSV [ECM29] | 2.55 ± 0.087 | 2.24 ± 0.1 | 2.27 ± 0.18 | 2.83 ± 0.15
SGCDSTKPSLRKASCIW [ECM29] | 2.86 ± 0.082 | 3.11 ± 0.075 | 2.63 ± 0.076 | 2.98 ± 0.066
IKEENDMENMADEQKRS [ARP7] | 3.54 ± 0.17 | 3.48 ± 0.15 | 3.24 ± 0.095 | 3.19 ± 0.24

Sequence | protein stability index (doa10∆) | protein stability index (pdr5∆) | protein stability index (san1∆) | protein stability index (ubr1∆)
LNECLKTIQINNEKVVQ [YML031W/NDC1] | 1.96 ± 0.12 | 2.27 ± 0.073 | 1.29 ± 0.16 | 1.11 ± 0.1
LELVNTPLTENILIASL [YCG1] | 1.66 ± 0.052 | 1.62 ± 0.042 | 1.93 ± 0.083 | 2.27 ± 0.037
SELDSNDFFIIYYTPAF [YJL039C/NUP192] | 1.39 ± 0.065 | 1.51 ± 0.041 | 1.63 ± 0.075 | 1.55 ± 0.044
NGGNNTQQPGTNSHYNN [SNF2] | 3.05 ± 0.058 | 3.16 ± 0.063 | 3.04 ± 0.054 | 3.05 ± 0.047
VASQSPHATATEKEPVP [SNF6] | 3.23 ± 0.11 | 3.06 ± 0.061 | 2.88 ± 0.15 | 3.35 ± 0.077
GSLARAGKVKSQTPKVE [RPS30A] | 2.71 ± 0.06 | 2.7 ± 0.069 | 2.69 ± 0.058 | 2.57 ± 0.05
VVSCSQHGFEVQVGPMK [RPB7] | 3.09 ± 0.12 | 3.15 ± 0.098 | 3.02 ± 0.089 | 3.23 ± 0.12
RLGLIPLQSMDIEQLEY [RPB3] | 2.75 ± 0.067 | 2.92 ± 0.063 | 2.91 ± 0.088 | 2.72 ± 0.083
SPMLKRIKITANNNMND [GRR1] | 2.36 ± 0.055 | 2.4 ± 0.078 | 1.77 ± 0.079 | 2.71 ± 0.048
DSYGQGSMTKTWYVGNS [SSN2] | 2.94 ± 0.13 | 3.09 ± 0.16 | 3.34 ± 0.16 | 3.05 ± 0.088
ILHGSKSQEQREHSLQL [PRP28] | 3.11 ± 0.1 | 2.69 ± 0.089 | 2.92 ± 0.067 | 2.35 ± 0.041
YTKKHLSSHSSTNSNSK [RPN4] | 3.37 ± 0.14 | 3.11 ± 0.076 | 2.95 ± 0.055 | 2.95 ± 0.061
TYGVPGSENKRGSLDSE [NUT1] | 3.31 ± 0.095 | 3.25 ± 0.11 | 3.23 ± 0.15 | 2.99 ± 0.074
TSYKKWSFDLPEMSNLY [PRP8] | 2.6 ± 0.055 | 2.52 ± 0.05 | 2.26 ± 0.058 | 2.13 ± 0.044
IMECCQKNDTAAFKDIA [RRP40] | 3.08 ± 0.16 | 3.54 ± 0.17 | 2.95 ± 0.084 | 3.54 ± 0.077
SYTDAQDKSKKIMNVTT [YMR129W/POM152] | 2.97 ± 0.1 | 2.66 ± 0.11 | 2.88 ± 0.056 | 3.03 ± 0.048
MYQMITMGGNAELELVD [SMC4] | 2.81 ± 0.074 | 2.47 ± 0.1 | 2.6 ± 0.08 | 2.54 ± 0.072
KNEEAEIEVDEMEVDAE [RPN1] | 3.4 ± 0.14 | 3.51 ± 0.11 | 3.19 ± 0.12 | 3.62 ± 0.1
ALAEGHGDAAVLLVEKY [NAS6] | – | 3.12 ± 0.1 | 3.04 ± 0.09 | 2.6 ± 0.11
YGSSPKLLATSTKIIML [SRB8] | 1.59 ± 0.065 | 1.7 ± 0.063 | 1.63 ± 0.16 | 1.24 ± 0.069
